Assay results as given in the supplement of paper PMC12764529.
± gives the half width of the 95% confidence interval.

Legend:
[1] = folding stability dG unfold (combined trypsin and chymotrypsin); higher = more stable
Procedure, shortened: (§1)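 Designed mini-proteins with no cysteine and under 80 residues were kept only if AlphaFold2 dimer inter-PAE was above 15. In a PA-tagged cDNA display construct, they were digested with trypsin and chymotrypsin and then sequenced. K50 was inferred by Bayesian fitting of counts, and unfolding free energy was derived per protease or combined against a sequence-predicted unfolded-state K50 and a shared folded-state K50.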

[2] = folding stability dG unfold from trypsin proteolysis; higher = more stable
Procedure, shortened: as §1

[3] = folding stability dG unfold from chymotrypsin proteolysis; higher = more stable
Procedure, shortened: as §1

| Sequence | folding stability dG unfold [1] [kcal/mol] | folding stability dG unfold [2] [kcal/mol] | folding stability dG unfold [3] [kcal/mol] |
| --- | --- | --- | --- |
| SAGGSAGGSAVPFVLPDGYVLEVEPDPETGLYRIRVTSPDGRTYEFTAPPDVPLADIPVVIDDSAGGSAGGS [r12_261_TrMRF] | 2.95 ± 0.053 | 2.89 ± 0.059 | 2.96 ± 0.034 |
| SAGLRVVAVARTPDGSLVVVYELPDRLVVLRYTPTAITSVAVFPVPPVPPPPAVPRYYDPVTGRWVDGSAGG [r19_254_TrMRF] | 3.02 ± 0.061 | 1.71 ± 0.029 | 3.641 ± 0.026 |
| SAGGSAGGSWRTITYEFKLPKPGQTAEDIAKEIMQLFPGVKDIEIKYYPEEGYIKVDIRFRPNSAGGSAGGS [r20_31_TrROS] | 3.13 ± 0.22 | 3.37 ± 0.2 | 2.88 ± 0.042 |
| MRVVFEATYTDPEGVPVTETFVIPEEVLEEIEREGRPITREELVELAEEIIRDYTKEHDADVEFRFVEFEPS [r1_174_TrMRF] | 2.27 ± 0.1 | 1.91 ± 0.086 | 2.52 ± 0.025 |
| SAGGSAGGMEKYKVTITIERPDPNNPDVKTTEVTEVVLTPEEIEKLKKELAPTGYRVEITVIDESAGGSAGG [r6_857_JUSTAS] | 2.45 ± 0.15 | 2.6 ± 0.14 | 2.51 ± 0.086 |
| SAGGSAGGSAGPKVVLVPVKVVQKLLGVKIPENSRVLVLLEKDKVKAVLVFPVLPSPENPSAGGSAGGSAGG [r11_616_TrMRF] | 1.54 ± 0.17 | 1.26 ± 0.12 | 1.55 ± 0.07 |
| SAGGSAGGSAGGPEVTITLPPPEKVKVEIVEIEVEGGKVRIRVRNENGEELTFTVPLEDLSAGGSAGGSAGG [r7_829_TrROS_Hall] | 1.51 ± 0.26 | 0.667 ± 0.18 | 1.59 ± 0.35 |
| SAGMTFKNPGSDKTLTYEPETGAITLHNGDSVSTLPLPPGTSFTVTVDPEKGVVTITVPETGATITLPLSAG [r5_858_JUSTAS] | 0.803 ± 0.11 | 1.07 ± 0.028 | 0.248 ± 0.22 |
| SAGGSAGGKETKTITMIIKVKDENGKELKAGDKVEIEINGKKITIEVTYNKKTGYLVVKATIKPSAGGSAGG [r6_657_TrROS_Hall] | 3.37 ± 0.17 | 2.47 ± 0.096 | 3.87 ± 0.11 |
| SAGGMIPEELIRKLFEDGKPVPLEQIVELIEKLTGRPVRLEEGEDKFRIVVLDPDTPELLDEIEIDFSAGGS [r8_105_TrMRF] | 1.55 ± 0.091 | 1.43 ± 0.086 | 1.57 ± 0.028 |
| SAGGHHMTIETFEEPDKLTVVVDGDDPEATREYLLQKVKEESSRKPVKVTFTEDPNGKLTITFDLKEESAGG [r13_158_JUSTAS] | -0.17 ± 0.34 | -0.568 ± 0.26 | -0.186 ± 0.34 |
| SAAFAIKAIATPPNGKKYEILALDNGEGVLVFIENGSKEIPLEELIKLIENNPELKIEKIEIRPLSEFLSAG [r14_336_TrMRF] | 0.611 ± 0.17 | 0.667 ± 0.11 | 0.486 ± 0.19 |
| SAGGSAGGSAGGMIVTLPKTGEVLLVPEEEIEAFLAALPESFPKEDVEVYEYSPEEEPLSAGGSAGGSAGGS [r10_13_JUSTAS] | 0.253 ± 0.13 | 0.566 ± 0.044 | 0.0515 ± 0.17 |
| SAGGSAGGSAGGGKPVKVIVVEVGGKKVLVTFDEDTGKLTVYNLDTGKTETVTVSPEDLSAGGSAGGSAGGS [r10_669_TrROS_Hall] | 1.77 ± 0.16 | 1.83 ± 0.12 | 1.67 ± 0.066 |
| SAGGKKEVILVIEIDLPESEEELLEEAERLAKELAELLGKEREVEVEVIEKDGKLIIVLRINGKEIVLSAGG [r13_845_TrROS_Hall] | 2.52 ± 0.32 | 2.78 ± 0.23 | 2.68 ± 0.051 |
| SAGGMSFTMTVPPSNPNQVVGTNVPVSDVPPNYAYTLHFPNTGTTTTIPVSQAEEVKAQPHIDEITATSAGG [r19_302_JUSTAS] | 0.486 ± 0.04 | 0.688 ± 0.03 | 0.0302 ± 0.085 |
| SAGGSAGGSYWFSITFKINFWVIDGNRIHPVPIEITILIKIPPIPPDEMKPEPTPDGEPKYDFSAGGSAGGS [r12_1031_TrROS] | 4.29 ± 0.23 | 2.73 ± 0.15 | 4.64 ± 0.2 |
| SAGGSAGGSAGGWYRIEIEFGNKPREYVVPGAPPDEAADMLQDPGIKNVKVEPLPPEQLKSAGGSAGGSAGG [r7_502_TrROS] | 0.174 ± 0.25 | -0.817 ± 0.65 | 0.537 ± 0.16 |
| SAGGSAGGSAGGGPDAVRQFPPPVNLSVEVTSYTSPSSSLSNGKPEKSTFTTLNPTAGVSAGGSAGGSAGGS [r10_877_JUSTAS] | 0.139 ± 0.11 | 0.0381 ± 0.13 | 0.0744 ± 0.19 |
| SAGGSAGGSAGMTLEIEVDPDNKVIELKIYIGGKPVEMTIVVTPNSGYIRIPDGGWIPIESAGGSAGGSAGG [r11_395_TrROS] | 2.85 ± 0.083 | 2.1 ± 0.053 | 3.37 ± 0.065 |
| SAGGMIIIEGMSEEEIKNLIKEAIKKGEKVKKIVIRVNGKLYLITVDAKTKKITVEEIPLEELKKKKSAGGS [r16_481_TrROS_Hall] | 1.4 ± 0.21 | 0.692 ± 0.095 | 1.85 ± 0.067 |

| Sequence | folding stability dG unfold [1] [kcal/mol] | folding stability dG unfold [2] [kcal/mol] | folding stability dG unfold [3] [kcal/mol] |
| --- | --- | --- | --- |
| SVDPAKEKVVLRFTVTFPVPPELGPITADELAALVREILEAFGYEIVSVTVTVEGDRVTVTVEAVFDKRGSA [r9_1134_TrMRF] | 5.01 ± 0.091 | 3.76 ± 0.11 | 5.21 ± 0.086 |
| SAGGMKITITYDKETKTITVKITYPDGTTEELTIEVPPEKKTPEEIAEELKKLIEERFGKKVEIEIVSAGGS [r8_166_TrROS_Hall] | 2.98 ± 0.15 | 3.82 ± 0.26 | 2.45 ± 0.18 |
| SAGMVVTINFSIPETGETITITIPVPEDDPVVKALGAPSAEDIAAYLAPQLKEKGINVQNPTVTVTEPSSAG [r5_722_JUSTAS] | 0.705 ± 0.051 | 0.24 ± 0.043 | 0.928 ± 0.053 |
| SAGGSEEFELEFRVEAASPEEAEALAEEIRKRLEDLGLDVEVEAETLEPGAVVVRPRVRVDPETGRLDSAGG [r13_697_TrMRF] | 0.956 ± 0.16 | 0.126 ± 0.24 | 1.29 ± 0.065 |
| SAGGSAMTITVTEETDPNTDRKTTTVSLSPGVSEEVLEELKAEAEKKGAKLTVYPEEGVVTVVTPESAGGSA [r15_542_JUSTAS] | 0.224 ± 0.17 | 0.0631 ± 0.052 | 0.311 ± 0.065 |
| SAGMITPEELEERIRKLAEETGGPRYRVKVRGPDGPLYEFEVGFTPEEIERLAKELGVDIVEVEPIPESAGG [r19_50_TrMRF] | 3 ± 0.11 | 2.97 ± 0.085 | 3.07 ± 0.13 |
| SAGGITIVWQPGYFRIEFPGNGNTVPIPIPPDDPGRTLEEFADEFIDEMSERFGIPPPEDIKIEYYDSAGGS [r8_402_TrROS] | 1.39 ± 0.15 | 1.31 ± 0.13 | 1.36 ± 0.084 |
| SAGGSAGGSASWITITGLLPGGRLVTTRYDPSTGSVSTETTPIPPVPAFPLGPENLALNFLLSAGGSAGGSA [r18_236_JUSTAS] | 0.746 ± 0.13 | 0.706 ± 0.044 | 0.528 ± 0.19 |
| SMKLKLYDPATGKWYELTYDPAKGTVTITYPDGKVITRPVKSIEVNPETGTITITFPDSTETFTVPESLISA [r9_325_JUSTAS] | 3.79 ± 0.066 | 3.42 ± 0.089 | 3.934 ± 0.031 |
| SAGGSAGGSDKVVEFTFKIPSKDITAEDIAKAVKEAFPGVKKIEVTLYPGEGTAKVKVYLEPSSAGGSAGGS [r20_31_TrMRF] | 4.29 ± 0.18 | 3.52 ± 0.16 | 4.44 ± 0.088 |
| SAGGSAGGSAGGGLGYRTLTGRVEFELNITYLTEDGSPATLNLRFELELRFVVPVPPDYPSAGGSAGGSAGG [r7_926_TrMRF] | 5.37 ± 0.14 | 3.7 ± 0.14 | 5.54 ± 0.098 |
| MEEIKNLPGVKYEPIIEDGEIRLVRFEIPKEVFEKFGKPPVILLVEFSKDGKYRILPESIPKLLELGIIPGS [r1_256_TrMRF] | 2.27 ± 0.052 | 1.85 ± 0.023 | 2.52 ± 0.058 |
| SAGGSAGGSAGGPKVEVTVKGKPATVEWFPEEGKARVTVPDGRVYVLDLNGDKLEIKPLSAGGSAGGSAGGS [r10_724_TrMRF] | 0.512 ± 0.1 | 0.258 ± 0.041 | 0.588 ± 0.13 |
| AAPEGAVVTFDDKEITVAPDETLYLVNGKLYTKSEIPAVLKQLSPETEYTELTVAGDTGEVETETKHIYRPS [r1_304_JUSTAS] | 1.25 ± 0.14 | 0.867 ± 0.097 | 1.51 ± 0.12 |
| SAPIRPGQDLKIEPEIRRYPNGSMSYTYRLEFPNGPTVHVRHTMQRDPEHGKPRHKWDIHLSPKALEAFSAG [r14_842_TrROS] | 1.41 ± 0.07 | 1.49 ± 0.057 | 1.37 ± 0.09 |
| SAGGKMVIVKIRIKERKVKVEKTKDGKEKKVEVEEKEKEITLIVEGSEEEVKKLAEELEKLGLEVEVISAGG [r13_452_TrROS_Hall] | 2.28 ± 0.14 | 1.2 ± 0.063 | 2.52 ± 0.079 |
| SAGGSAGGSAMVIEDPKTNKLIEVEKLPDGTYKVTIYDKKTGEKKTITMSKKDLEKLLKALSAGGSAGGSAG [r3_162_TrROS_Hall] | 4.81 ± 0.36 | 4.91 ± 0.44 | 4.78 ± 0.14 |
| SVPADAKPGVVPERVVLVIVVPPELLDEDGRLRPENLEIAAGEAAEAARKLREAFPDVPIEDVGVVVVEGSA [r9_943_TrMRF] | 0.705 ± 0.046 | 0.869 ± 0.02 | 0.466 ± 0.029 |
| SANPALYQWVTTDVVLPFETEEEALAAVEALAAARAAATGATVTVSVEVERLPDGLRVRVPVTTLVPLLSAG [r14_626_JUSTAS] | 1.05 ± 0.046 | 1.05 ± 0.012 | 0.984 ± 0.099 |
| SAKEPVYLVRIRVEIYKDGKPVKELEIEVEVEEGETLEEVLERLREELEKKGYKIVKVEIEVRKLPPPESAG [r14_979_TrROS_Hall] | 4.72 ± 0.19 | 3.35 ± 0.13 | 5.04 ± 0.15 |
| SAGMEVKVETVTIEIEVDGKKIEIKVVRVEVRNEDGSIYEFTFIEITVPEDVSEEELRKLLEELGLEPESAG [r5_486_TrROS_Hall] | 3.77 ± 0.29 | 2.64 ± 0.12 | 4.1 ± 0.31 |
